# ± gives the standard deviation of the averaged measurements.
# System: ATP
# Experiment: switch fluorescence ratio, 500 uM ATP over buffer (Cy3 cluster intensity, sum of 5 cycles each) (fold (ratio)); higher = stronger signal-on switching upon ATP binding; sequences stand for … in TCGTCGGCAGCGTCAGATGTGTATAAGAGACAGTTTTTTTTTTTTTTTTTTTTTTTTT…TC
# Conditions: aptamer strand: ATP DNA aptamer (quencher-CACCTGGGGGAGTATTGCGGAGGAAGG + anchor), 100 nM annealed; ATP concentration: 500 uM
# In short: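 Per cluster, summed Cy3 intensity from the target cycles was divided by that from the buffer cycles to give the fluorescence ratio, then averaged per switch-domain sequence. Clusters outside 100-1000 RFU were excluded. The Cy3-labelled switching-strand clusters, on a modified Illumina MiSeq flow-cell, were annealed to 100 nM quencher-labelled ATP aptamer and imaged in selection buffer, then after 15 min with 500 uM ATP at 22 °C, for five cycles with NaOH stripping and re-annealing between them.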
# 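Note: ATP exposure 15 min at 22 °C before imaging.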
row,Sequence,switch fluorescence ratio
1,TGAATGATCG,1.07 ± 0.032
2,TGAATGGAAT,1.04 ± 0.047
3,TGAATTAAGT,1.029 ± 0.003
4,TGAATTAGAA,0.968 ± 0.018
5,TGAATTTGTT,0.995 ± 0.038
6,TGAATTTTAA,0.995 ± 0.042
7,TGACAACAGC,1.049 ± 0.0091
8,TGACAACCGG,1.05 ± 0.021
9,TGACAGTAAC,1.25 ± 0.25
10,TGACATCTA,1.07 ± 0.057
11,TGACCCGGGT,1.018 ± 0.0072
12,TGACCGAGAA,1.06 ± 0.028
13,TGACGCCGAA,1.07 ± 0.019
14,TGACGGCGGA,1.02 ± 0.023
15,TGACGGGAAG,0.9862 ± 0.0012
16,TGACGGGGAT,1.25 ± 0.33
17,TGACGGGTAC,1.87 ± 0.087
18,TGACGTCTGG,1.015 ± 0.0071
19,TGACGTGCGC,1.143 ± 0.0093
20,TGACGTTTTG,0.9792 ± 0.0046
21,TGACTACGCG,1.18 ± 0.02
22,TGACTATGCT,0.98 ± 0.02
23,TGACTGGACG,1 ± 0.028

row,Sequence,switch fluorescence ratio
1,TGACTGGGCG,1.0063 ± 0.00065
2,TGACTGGGGT,1.02 ± 0.068
3,TGACTGTGTG,0.984 ± 0.017
4,TGACTGTTTC,1.01 ± 0.024
5,TGACTTTTCG,0.995 ± 0.032
6,TGAGAAAGAG,2.15 ± 2
7,TGAGAAAGGA,0.99 ± 0.028
8,TGAGAAGCGG,0.97 ± 0.039
9,TGAGAAGTTT,0.992 ± 0.023
10,TGAGAATTTG,0.976 ± 0.048
11,TGAGACTTAC,1.15 ± 0.06
12,TGAGAGAAGG,1.01 ± 0.014
13,TGAGAGAGTG,1.02 ± 0.059
14,TGAGAGCAGG,1.08 ± 0.025
15,TGAGAGCGTC,0.89 ± 0.14
16,TGAGAGGAAG,0.989 ± 0.018
17,TGAGAGGATG,0.99 ± 0.021
18,TGAGAGGGGT,1.05 ± 0.042
19,TGAGAGTAGG,0.9839 ± 0.0072
20,TGAGAGTGCG,0.968 ± 0.027
21,TGAGATAAGG,0.987 ± 0.03
22,TGAGATAGAT,1 ± 0.013
23,TGAGATCGGC,0.992 ± 0.042

row,Sequence,switch fluorescence ratio
1,TGAGCAGCTG,0.953 ± 0.058
2,TGAGCATGAA,1 ± 0.024
3,TGAGCCCTTT,1.018 ± 0.0046
4,TGAGCCGGGA,1 ± 0.019
5,TGAGCCTTGG,0.995 ± 0.017
6,TGAGCTAATG,1.04 ± 0.043
7,TGAGCTGGGT,0.995 ± 0.02
8,TGAGGAAATG,1 ± 0.037
9,TGAGGAGGGC,1.02 ± 0.08
10,TGAGGCCTAG,1.02 ± 0.056
11,TGAGGGACAT,1.02 ± 0.046
12,TGAGGGAGGT,0.985 ± 0.03
13,TGAGGGCAAG,1.02 ± 0.022
14,TGAGGGCCGA,1.02 ± 0.13
15,TGAGGGCGGG,1.03 ± 0.056
16,TGAGGGCGTT,0.995 ± 0.031
17,TGAGGGGGTG,1 ± 0.029
18,TGAGGGTACA,0.984 ± 0.017
19,TGAGGGTGCT,1.04 ± 0.037
20,TGAGGTATAT,1.01 ± 0.015
21,TGAGGTATGC,0.994 ± 0.031
22,TGAGGTCAGG,0.982 ± 0.017
23,TGAGGTCATT,0.989 ± 0.028

row,Sequence,switch fluorescence ratio
1,TGAGGTGGGG,0.9887 ± 0.0027
2,TGAGTATGGT,1.002 ± 0.0059
3,TGAGTATTTT,0.992 ± 0.025
4,TGAGTCCCGG,1 ± 0.016
5,TGAGTCGTGT,0.9674 ± 0.0054
6,TGAGTGAGGG,1.01 ± 0.018
7,TGAGTGCAGG,1.02 ± 0.066
8,TGAGTGTGTT,0.962 ± 0.026
9,TGAGTTATG,1.0034 ± 0.00041
10,TGAGTTATGC,0.953 ± 0.015
11,TGAGTTCGCA,1.69 ± 0.13
12,TGAGTTGGGG,0.967 ± 0.016
13,TGAGTTTTTA,0.9956 ± 0.0072
14,TGATAAAAAT,0.993 ± 0.027
15,TGATAATCTT,0.99 ± 0.028
16,TGATAATTGT,1.01 ± 0.034
17,TGATACTCGC,1.18 ± 0.12
18,TGATAGGGGT,1.02 ± 0.05
19,TGATAGGTCT,0.986 ± 0.03
20,TGATAGTAGT,1 ± 0.025
21,TGATAGTCTA,1 ± 0.068
22,TGATATAGAG,1 ± 0.029
23,TGATATCTTG,0.9862 ± 0.0028

row,Sequence,switch fluorescence ratio
1,TGATATTATT,1.02 ± 0.015
2,TGATATTTTA,0.986 ± 0.035
3,TGATCAGGGA,1.02 ± 0.021
4,TGATCGAAGG,0.991 ± 0.034
5,TGATCGGGGG,0.982 ± 0.064
6,TGATCTGCAG,1.016 ± 0.0077
7,TGATGCACGG,1.04 ± 0.021
8,TGATGCAGAG,1.02 ± 0.018
9,TGATGCTTT,1.01 ± 0.077
10,TGATGGATAG,0.995 ± 0.047
11,TGATGGCAGT,1.02 ± 0.031
12,TGATGGCCGA,0.985 ± 0.019
13,TGATGGGCGG,0.9957 ± 0.008
14,TGATGGGCGT,0.9801 ± 0.0016
15,TGATGGGGTG,0.99 ± 0.012
16,TGATGTGCA,1.01 ± 0.17
17,TGATGTTACG,0.9871 ± 0.0046
18,TGATGTTCGA,1 ± 0.028
19,TGATTACTGG,1.027 ± 0.01
20,TGATTAGAGT,1.01 ± 0.016
21,TGATTAGATT,1.01 ± 0.046
22,TGATTAGTTG,0.993 ± 0.02
23,TGATTCACTG,0.9907 ± 0.0075

row,Sequence,switch fluorescence ratio
1,TGATTCAGGT,1 ± 0.024
2,TGATTCTTAG,0.989 ± 0.023
3,TGATTGCCGG,0.996 ± 0.02
4,TGATTGTATG,1.01 ± 0.011
5,TGATTGTGCA,0.989 ± 0.035
6,TGATTGTGGC,0.9557 ± 0.0095
7,TGATTGTTGG,1.01 ± 0.012
8,TGATTTATAG,1.012 ± 0.009
9,TGATTTCAGG,0.982 ± 0.062
10,TGATTTGTTG,0.971 ± 0.011
11,TGATTTTCCA,0.988 ± 0.021
12,TGATTTTCTG,1.008 ± 0.002
13,TGATTTTGTT,1.01 ± 0.018
14,TGATTTTTCT,1 ± 0.013
15,TGCAAACCTA,1.0241 ± 0.00058
16,TGCAAAGAAA,1.15 ± 0.12
17,TGCAAAGATT,0.99 ± 0.016
18,TGCAAATTGG,0.992 ± 0.011
19,TGCAAGGGGC,1.04 ± 0.04
20,TGCACATAGG,1.06 ± 0.016
21,TGCACCAGGA,1.13 ± 0.067
22,TGCAGATTTA,1.01 ± 0.014
23,TGCAGCGTTC,1.27 ± 0.053

row,Sequence,switch fluorescence ratio
1,TGCAGGAATG,2.17 ± 1.6
2,TGCAGGCTGC,0.989 ± 0.048
3,TGCAGGGAGG,1.02 ± 0.0064
4,TGCAGGGCGA,1.004 ± 0.0097
5,TGCAGGGGGG,1.02 ± 0.039
6,TGCAGGGGGT,1.09 ± 0.14
7,TGCAGTATGG,0.997 ± 0.019
8,TGCAGTCAAG,1.01 ± 0.016
9,TGCAGTGAAT,0.999 ± 0.026
10,TGCATGAGCG,1.02 ± 0.032
11,TGCATGGTGG,0.995 ± 0.01
12,TGCATGTAGG,1.01 ± 0.034
13,TGCATTAATT,0.992 ± 0.019
14,TGCATTGCTA,1.04 ± 0.015
15,TGCATTGGAG,1.01 ± 0.043
16,TGCATTGGG,0.975 ± 0.058
17,TGCATTGGGA,1.02 ± 0.043
18,TGCATTTTCG,1.03 ± 0.049
19,TGCATTTTTT,0.981 ± 0.034
